Data from the domain aggregation screens of Martell et al. (2025).

Assay: soluble fraction after stress (log2 fold change); higher = more stays soluble; pooled small domains, quantitative proteomics
Conditions: stress: 75 degC
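Note: 20 min heating vs room temperature control held 20 min.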

Row | Sequence | soluble fraction (log2)
1 | HMALALSGVDLNRNRLTISWQTSKGVSYRVQRSSDLQSWTDVGAERLGNGNRLSHTQALNTESAFLRVII | -0.0203
2 | HMDIPDIGHNVRIEVDGHNGKTTHEGIILHPAAPNHITIKLANGYNASYKLEEIINIEILGELGDDSKI | -0.136
3 | HMISDAEWKIMNVLWEEQPRTMMQITKELQEETGWTKHTVMTYLKRMESKKIIHYVEGEKAKLYYS | -0.133
4 | HMSFVEVTVSELKNYVNSHARIKLKSGKEFKGFILDANEEGVIIKVQLRGGTAESTISYNRIDRAAVF | -4.01
5 | HMKLSNELLNAIMLIKKGIRNPTSLAQRLNTDTQYAKNLLEHLKMTGLINEHSRLTSRGLDIFHQK | 0.356
6 | HMAESLHVTAAALFEGRAMLGIDGSRRLLRVGETSPEGVKLVSATAREAVIEIDGRRQTLAPGRDT | -0.133
7 | HMAMSAGEVVERIREHVGHPATIKELMRVLAIPNEERYRFRRRIKQLVEAGELIRIRGNRYGLADR | -2.83
8 | HMREIRIIAEEGHGRLDAFLAGREELGLSRSRIKGLIEEGQVTLNGAVPKAKQPVSPGDEIVVSVPD | 0.192
9 | HMGMNSGQADFRGISLALSVDAEAEAQRLFTALADGGQVQMPLSKTFFSPAFGMVADRFGVGWMVVTN | 0.238
10 | HMDRTIGEIGLVTETIDSTLESGRVMVDGLSWKARTSDNTVLEAGTRVQVKEIHGVTLTVEKA | 0.292
11 | HMRNPLYAQVADYVMQQIAAGTYRPHQAIPTEWQLAKKLEVSQGTVRKGLDELVFKQILYRQQGVGTFVAD | -1.31
12 | HMYKLTYVVDGEVYLEETVSYGSKIAAAPAPEKEGYTFSGWEGLPEVMPAKDVTVSGSFTVN | -0.69
13 | HMIERKLRKKEHFIASVGEKVKIKNFATETYKGELISADNEKVVVETEFGKEEITYDNILAAATYFE | -0.808
14 | HMGYTPGVVIQKSAILEEINQPDLALGMMLEAVKKDSQNLDILNRLVTLLIDQKKNEDAEIYNKKIIT | 0.234
15 | HMKNPLIIGMTKDKIIELIGMPDNIKFLDSSLSKSEVWNYDKFGKKLYIKDEKLYQIENIEE | 0.0985
16 | HMTEDNDLETIAYDILKERNLNNININVKNGVLNIYGKTETLKEKREIEKILSSLNVSKINNLIKI | 0.258
17 | HMADPRFHSEIMLSKIESLLSGKADSDVSNYSIQGRSLTKMSLQELMDARESYDGLVKSEKAKLDAKY | 0.0156
18 | HMSKSIGEALKEERRSLGLTQEQFIKGIISESFYSKVERGKNEIVAVDLLKILAANNISEEEFLSKLN | -0.694
19 | HMWMQKILGNYIAARRKELGMTQANLAEKIHVTDKAVSRWERGVGLPDIENLEALAKALEVSLVSLMQGKT | -2.36
20 | HMTRLSSREAQVISLVRDGMTNQQIAERLELSPLTIKNHVQNILRKLDVSNRAQAVAKAVKARLI | -0.774
21 | HMSVTMPNLVGLDEQTAVTRINSSNLSYGSTNYVHSDHEAGVVFKQSTPAYTEVDEHTKIYIWVSLGPEE | -0.729
22 | HMNNIINEAQIKQWVEEFYLSVSPRPTRATMIALVHKKIKEETKDGEEGQTVSETLINNFYTALEKEHKRK | 0.216
23 | HMRIETLESLANRLAYKAYRTGRKVELEPMNPFERRVIHTALQNSKYATTESEGEDMNRHIVIVPKEGG | -0.152
24 | HMHQKYIITGTRDTYVVSQGETLRTIAEHVYGSRGYARYIIEHNHITHPDDIPVGLTIRLPELELNPDYR | -1.9
25 | HMETAADLLAAAKENPARFGILASEGRFGLGYMNDDLLDPDNLVAISREEADDLRGLGVYFHNLD | 0.293
26 | HMTMMTFGEKLQNARKGAGLSQEQLAEKLSVSRSAVAKWENDNGMPDIDNLKAIAQLLDVSIDYLLEN | 0.812

Row | Sequence | soluble fraction (log2)
27 | HMSSPVIQINTRNDGWIIKLLQPAVEKDVLEGYLADVGLKLQSQMMEKILAAPAGTEFHIKRGSNILTE | -0.291
28 | HMGKGGVAYLLESEFGIELPKDMQREFGPIANDIVDSLGREVSGAELKSMFWKEYIERETPFLLLLVTGQL | 0.404
29 | HMSRVKQERLNRFVEAFEAYFRSVHPGEIDVEYLKSDEFGDIFESILHRVMHTASEEKMHRFKKILLNEM | -2.14
30 | HMGQAVTVPELKGLSFDEAIEKLDDAGLKYEVVDSNYVEDMKPGTVFETLPEAGSRVKPRRIVFLTINAF | -0.257
31 | HMLLSFYGTYGNVKLTGKELEDLQKEFPFDYQARIDRLSAYMESSGRKYHSHFATIRSWAQDDAKKN | -2
32 | HMLLELINLQVKILENEELKIIGKVIDLENEKNNLLVIELLKDQKKVLVPFVKEIVPLIDIKNNFIMINPP | -0.903
33 | HMSLGPNAYGKPATALNILRETVMGKELFDHAFKTYSKRWMFKHPSPEDFFRTMEDASAVDLDWFWR | 0.178
34 | HMPQETPIPKSEIQSYDEIWLEPISTDNILRNELRGWYHVKDRWVENEFGNRFYLDTYASKWLAFPS | -0.333
35 | HMTFAEADAQYEVIKQQYLAGALDEEQFDEQLHRLMVLDDGGLWWAKSRENGSWHYYDPDREDWIAATP | -0.394
36 | HMPSRPIQVASFSKEDNAKRAAEALAKIGVTATPQKSEKAGKAVWGVVVTGDDAMLQKIKDAGFADAYFL | 0.0515
37 | HMAISQYGSQSDEVTKIQTRLKAWGYFDGPVTAYYGSQTTEAVKKFQQKHGLSATGVADAKTLELIGLP | -0.397
38 | HMKRIDTILETFAKVHKHIPSKLILLGDGPELLDMRKIARSLHIEDDVLFLGKQDQVSKFYQMADLVLLL | -0.314
39 | HMSGFPTDAQIVREIRNILPTLENPTPRMVRKALENTFEVDMGESKTKKYINNIIITEYEKWSSVQSIRE | -0.603
40 | HMAVETYRVKKSDTMQTIADRFGLSVEELLEYNQAYKTRELRARDILIIPSRKERKKLQQQKAQAAAQVVQ | -0.632
41 | HMAGTELASIKEIQSLVDRSEEALSARNFFWPKDKSESMLLSFRNMFSRLKLTKMDVQIFHGIFKVMEKS | 0.24
42 | HMNDITVNVEDSKLIVTSNNPEKLPLYIMDIQGHILDKSEITAGTYSFPISDRGTYIVRIGENVYKVI | -0.166
43 | HMNKKEQYQNIISNFLEKMSEEDRLIFNMHFFKSINISQIARSIDREGYYVKTKIENLLADLKSLMIGNNL | -2.95
44 | HMDRPLRTKEHFARFAGEQVVVKTSSPIDGRSSFTGTLEGMEGDDVIVEVDGSRIAIGYSLIKRAHVVG | 0.00178
45 | HMSVKSVSLRKISYKVRRGDSLYNIAKNFSLSINDITHWNSINKKSYLQPGQRLTLYINPRN | -2.18
46 | HMAPREELIAIHEALDKLEREDPQVSQLVKLRYFVGMTMAEAADAMDLKKRAAEALWTYGKAWLHREIKKN | -3.24
47 | HMRTAKEVFYKELKGYMQNGDELSVKKIYSLFPEINPKTVSWRLHELVQHGKIHRTGHGYYALTQ | -1.37
48 | HMQPYTYNPNFLSDYRAYSLGIPLEAYDKLVQFRASGSFVNSMSDFQKITGVSDSLLAVLHSKFRYPK | -0.826
49 | HMRAPETEITYTEFKTALRAGQIETATVGIEQISGKLTDGDLYRTVRVDDPDLLKDLEANHVNAAGRV | 0.0537
50 | HMNAVYPNPFVSEIYIGENNRSVEIYNLNGGLVYGMSQPSSRIDVSGLAAGSYILIKKDSSGHISSHKIMK | -1.63
51 | HMKTKHISIAEGMSLYTRDRSPFYWGYLNIEGVIHKKSLKTDVVDEAIKLLSIWKNELLNSITK | -1.19
52 | HMKNYALHEPMMDRIAKVNALYDAGHTIKYMTARGAVSMVDYYDLTKSQLDSWGAKYHELSVGK | 0.12

Row | Sequence | soluble fraction (log2)
53 | HMDRRIDIANAVKTALGSLPERQKTAIVLVHYEGFSGAETAKLLGISVEAVESLLARARRNLRQTLGP | -0.471
54 | HMVQIFIPVVHDDHWFLIVFSREEDTFYVLDSLPSLSRISTINGIISTLKEHLQQASVGPQYSVKVLPVK | 0.226
55 | HMQSLPFSFAKRHGVLLKSINHLHGEAVYRIGANPLSLSEVQRYAGVPLKLSSITVEKFDRLLQETYEHD | -1.17
56 | HMSTSAAELLRTARQQAGMSQSAVAELAKTSQSAIAMYEAGNREPSLPVLQRLLAATGHQLSLSVLP | -0.337
57 | HMNPLSELSFEERRELFLEAAVRLFEEKGYKNTSVEDIAGELGFTKKVFYYYWKNKREIVQEIHDRGMA | -0.594
58 | HMQPHLSADEEHLLKILGSDTMHIDALVKRSTLETSNALAALAFLEMKGLVKNIGNMHYIRTYR | -0.552
59 | HMHTTIIVASRDIAAGSVLTSHDLSSVAWVGGAVPKGSYTAADLAVGKTAFTAFQQGEPILESRLAS | -0.35
60 | HMDSVTMYATTGVNVRSGPSTSYSIVGGLDRGDKVTRIGTSGNWTKVVWGNGSAYVFSKYLQTGY | -3.04
61 | HMSELDSYIGARLRMRRLMLGMSQEALGEKLSLTFQQIQKYEKGTNRVSASRLYELAQVLDVPVQFFFDGA | -2.98
62 | HMFADLNPDENYGQVYIRTNTIDNLYQTLLDNKTRIHPNGLLELKPWGQKEFSILDPDKNLLTFGES | -0.00771
63 | HMPSTVSVPDVAGSSLSEAKTTIKSSGLKVGTVHKVSSDTVESGYVIKTSPTAGSSKKEGSSIDIYVSKG | ≥ 1.04
64 | HMNQNHFLDSVVEFAKDEASRAFFQKAVKKLGEGLVEEAMGEVKMREADGSVNSRAPYFIALLENWMENR | -0.0208
65 | HMSAEAYLSFVKKENLRAAVVNYENNKEWLKDVPHERLLDLAVFAKVDMGEPGMSMKFNNWLLSR | -0.934
66 | HMTRRGPLTEGDRVQVRDPKGRFHQVILVRGGRFQSNRGGFNHDDVIGRPDGQVIITDEGRQFQIL | 0.493
67 | HMGVPTEQQSLIGKSGIAATDLRPSGKVEIDGKRYDAVSNYAGFIAKGTPISVVRYETGQIYVE | 0.205
68 | HMKVDRLISIVLVLLDKNRISAQELADMFEVSLRTIYRDIDAIELAGIPIRSTSGVGGGFEIMPNY | -1.11
69 | HMNSVTLEHIVYDFRVFNMLKGSGINDIDELIKAAEDGRLFKIIGSNLTYKRIKKSAAEFGVILPDKPG | -2.25
70 | HMKMLKAPIPGTIIEVKVNPGQTVNDGDVAVVLEAMKMESDIHFNSSGKVKKIHVNKGDSVQEGDDLIELE | 0.0235
71 | HMTASTLSYSKFNEQVVQNQVRKVTFQGEQVKGELISGQTFTTTVPANDTTLWPMLKAHNVDTAVTAA | 0.186
72 | HMLPADETEARVLNVLGSEPLHVDEIRNQADLPIEKISATLAMMELKGMVRQVGGMNYVAMR | 0.0378
73 | HMNERIKSLRKALGLTQQEFADKLGISRGNIGAYEVGKNAPSDAVISLIVRIFNTNENWLRTGEGEM | -0.776
74 | HMDNNNQAAFMGALNSLKEYAKVNGNIVTKQDVESYFKDLGLDDSKYQMITGYLLANDITVKG | 0.181
75 | HMDDSVVFSLNAKGIRLTGAGKYGEAIALFDKAIAAKPGLSGLYFNRAEARRLSGDLPGARSDLEQALAI | -0.416
76 | HMTLAEEFNNLNGKVITRETLESLLVKAEKEQNSTISNRIRKVLQAYTADTFLIELQHTESA | -0.0241
